Results on five molecules are retold here after paper PMC7319049 (Nature, 2020).

The chains are these.
B4: Swi1 (natural protein)
chain: MDFFNLNNNNNNNNTTTTTTTTNNNNTNNNNTNNNNNPANNTNNNNSTGHSSNTNNNTNNNNTNTGASGVDDFQNFFDPKPFDQNLDSNNNNSNSNNNDNNNSNTVASSTNFTSPTAVVNNAAPANVTGGKAANFIQNQSPQFNSPYDSNNSNTNLNSLSPQAILAKNSIIDSSNLPLQAQQQLYGGNNNNNSTGIANDNVITPHFITNVQSISQNSSSSTPNTNSNSTPNANQQFLPFNNSASNNGNLTSNQLISNYAASNSMDRSSSASNEFVPNTSDNNNNSNNHNMRNNSNNKTSNNNNVTAVPAATPANTNNSTSNANTVFSERAAMFAALQQKQQQRFQALQQQQQQQQNQQQQNQQPQQQQQQQQNPKFLQSQRQQQQRSILQSLNPALQEKISTELNNKQYELFMKSLIENCKKRNMPLQSIPEIGNRKINLFYLYMLVQKFGGADQVTRTQQWSMVAQRLQISDYQQLESIYFRILLPYERHMISQEGIKETQAKRIFLQQFLQELLKKVQQQQQAAALANANNNINSASSAPTPAAPGASVPATAAPGTEAGIVPVSANTPKSLNSNININVNNNNIGQQQVKKPRKQRVKKKTKKELELERKEREDFQKRQQKLLEDQQRQQKLLLETKLRQQYEIELKKLPKVYKRSIVRNYKPLINRLKHYNGYDINYISKIGEKIDSNKPIFLFAPELGAINLHALSMSLQSKNLGEINTALNTLLVTSADSNLKISLVKYPELLDSLAILGMNLLSNLSQNVVPYHRNTSDYYYEDAGSNQYYVTQHDKMVDKIFEKVNNNATLTPNDSNDEKVTILVDSLTGNQLPTPTPTEMEPDLDTECFISMQSTSPAVKQWDLLPEPIRFLPNQFPLKIHRTPYLTSLKKIKDEIDDPFTKINTRGAEDPKVLINDQLSTISMILRNISFSDNNSRIMSRNFYLKRFISDLLWLVLIHPENFTCNRKILNFKKDLVIVLSNISHLLEIASSIDCLLILILVISFGQPKLNPMASSSSFGSESLTFNEFQLQWGKYQTFGVDILAKLFSLEKPNLNYFKSILLNKNTGNNLYDRNSNNNHKDKKLLRRLLNLYNDNNKNNNNRHNLLNDVVSFLFSAIPLQQVLSQSADPSLLIDQFSPVISQSLTSILVIVQKILPLSNEVFEISENNSDSNSNNNGNKDSSFNFNKNLPFVWLSSEENIGSGLLKLSEIILNINNSTSKNTLLQQQNYSKVLLPSINISCVQLIKCLVEKSICFENCLNNDPEILKKIASIPNLFPTDLEIFQLFTNPSVDIQIINQYQLLYNLKNDILTNLE

The target of one experiment is Snf2 (S. cerevisiae, UniProt P22082 1-1703). In words: cryo-EM structure.
Sequence of Snf2 (P22082 whole entry): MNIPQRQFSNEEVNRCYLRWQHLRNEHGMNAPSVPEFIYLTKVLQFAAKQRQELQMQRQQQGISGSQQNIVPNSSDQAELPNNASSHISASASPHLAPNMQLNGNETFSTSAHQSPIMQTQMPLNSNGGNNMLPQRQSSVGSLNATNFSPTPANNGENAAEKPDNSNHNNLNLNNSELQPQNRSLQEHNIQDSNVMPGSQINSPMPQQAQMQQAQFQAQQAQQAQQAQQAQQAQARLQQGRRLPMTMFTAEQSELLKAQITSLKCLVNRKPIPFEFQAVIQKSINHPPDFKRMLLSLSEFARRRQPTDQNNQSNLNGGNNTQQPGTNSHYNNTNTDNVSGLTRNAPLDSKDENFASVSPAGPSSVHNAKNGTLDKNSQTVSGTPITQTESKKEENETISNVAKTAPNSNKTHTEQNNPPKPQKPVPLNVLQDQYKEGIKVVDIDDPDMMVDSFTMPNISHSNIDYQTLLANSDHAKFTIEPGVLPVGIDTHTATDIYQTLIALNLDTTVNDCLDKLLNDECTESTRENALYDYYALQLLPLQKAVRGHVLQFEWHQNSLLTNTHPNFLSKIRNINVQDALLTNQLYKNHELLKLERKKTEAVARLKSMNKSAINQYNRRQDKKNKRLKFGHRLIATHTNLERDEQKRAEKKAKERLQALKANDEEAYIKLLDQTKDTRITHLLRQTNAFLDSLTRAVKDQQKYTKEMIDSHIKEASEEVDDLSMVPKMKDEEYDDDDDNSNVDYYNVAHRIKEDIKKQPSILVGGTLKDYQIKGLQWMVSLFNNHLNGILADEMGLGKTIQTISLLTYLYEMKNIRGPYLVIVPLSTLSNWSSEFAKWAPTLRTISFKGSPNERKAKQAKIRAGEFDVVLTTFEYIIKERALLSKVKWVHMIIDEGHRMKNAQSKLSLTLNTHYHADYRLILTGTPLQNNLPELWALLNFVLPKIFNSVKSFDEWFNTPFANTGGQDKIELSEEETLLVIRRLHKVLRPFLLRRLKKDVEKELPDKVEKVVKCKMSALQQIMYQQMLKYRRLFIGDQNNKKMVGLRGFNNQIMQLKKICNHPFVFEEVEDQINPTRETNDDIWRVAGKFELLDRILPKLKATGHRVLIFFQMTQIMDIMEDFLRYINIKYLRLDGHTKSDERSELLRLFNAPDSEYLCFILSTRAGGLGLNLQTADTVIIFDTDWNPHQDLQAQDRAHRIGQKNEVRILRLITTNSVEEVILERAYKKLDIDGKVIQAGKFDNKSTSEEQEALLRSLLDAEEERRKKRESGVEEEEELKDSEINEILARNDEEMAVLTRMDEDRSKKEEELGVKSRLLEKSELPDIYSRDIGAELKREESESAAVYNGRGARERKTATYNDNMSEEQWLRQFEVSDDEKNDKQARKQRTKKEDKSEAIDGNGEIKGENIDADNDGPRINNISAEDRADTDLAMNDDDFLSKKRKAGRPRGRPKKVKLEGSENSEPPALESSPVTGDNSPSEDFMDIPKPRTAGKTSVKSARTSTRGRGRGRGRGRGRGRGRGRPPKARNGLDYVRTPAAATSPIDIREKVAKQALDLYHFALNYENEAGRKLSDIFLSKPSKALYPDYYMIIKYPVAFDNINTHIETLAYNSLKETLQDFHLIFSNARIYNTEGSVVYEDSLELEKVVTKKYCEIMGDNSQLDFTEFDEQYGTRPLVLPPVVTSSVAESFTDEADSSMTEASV
The experiment “Swi1” concerns the target B4. Description: cryo-EM structure.

B1: Rtt102 (natural protein)
chain: MDPQTLITKANKVSYYGNPTSKESWRYDWYQPSKVSSNVQQPQQQLGDMENNLEKYPFRYKTWLRNQEDEKNLQRESCEDILDLKEFDRRILKKSLMTSHTKGDTSKATGAPSANQGDEALSVDDIRGAVGNSEAIPGLSAGVNNDNTKESKDVKMN
B1: the binding result with Snf2 is “binds”.

B2: Snf5 (natural protein)
chain: MNNQPQGTNSVPNSIGNIFSNIGTPSFNMAQIPQQLYQSLTPQQLQMIQQRHQQLLRSRLQQQQQQQQQTSPPPQTHQSPPPPPQQSQPIANQSATSTPPPPPAPHNLHPQIGQVPLAPAPINLPPQIAQLPLATQQQVLNKLRQQAIAKNNPQVVNAITVAQQQVQRQIEQQKGQQTAQTQLEQQRQLLVQQQQQQQLRNQIQRQQQQQFRHHVQIQQQQQKQQQQQQQHQQQQQQQQQQQQQQQQQQQQQQQQQQQQQQQQQQQQQGQIPQSQQVPQVRSMSGQPPTNVQPTIGQLPQLPKLNLPKYQTIQYDPPETKLPYPTYWSDKKADTDTLLYEQIIQRDKINKYSLIRETNGYDPFSIYGFSNKEYISRLWHTLKYYQDLKNTRMKSITSTSQKIPSASIWGNGYSGYGNGITNTTTRVIPQVEVGNRKHYLEDKLKVYKQAMNETSEQLVPIRLEFDQDRDRFFLRDTLLWNKNDKLIKIEDFVDDMLRDYRFEDATREQHIDTICQSIQEQIQEFQGNPYIELNQDRLGGDDLRIRIKLDIVVGQNQLIDQFEWDISNSDNCPEEFAESMCQELELPGEFVTAIAHSIREQVHMYHKSLALLGYNFDGSAIEDDDIRSRMLPTITLDDVYRPAAESKIFTPNLLQISAAELERLDKDKDRDTRRKRRQGRSNRRGMLALSGTSASNTSMNGVHNTVAAGNASSLPPGEILLPDIADIPRTFRTPVPSTLMPGGVDVGPSVESYELRNTTTYKSRPDRPKPVSPPCYIIDHIPGHSLLLSIKLPGKVNTKEEFAAAPNDTSSGTNAMLPSPESLKTKLNSNIRAGVTIPSIPNPIANHTVTNSPNPTLQPVIPGGAASKSVPTPSLPIAPPVAPHDSEATLLTNSNNGSSNNNTQNT
In the case of B2, the binding result with Swi1 is “binds”.

B3: Arp9 (natural protein)
chain: MAPFRQDSILIIYPRSQTTLVQFGLNEETFTVPELEIPTQIYRTTRQDGSYTYHSTNKDNKAELIKPIQNGEIIDISAFTQFLRLIFVSILSDRANKNQDAFEAELSNIPLLLITHHSWSQSDLEIITQYVFESLEINNLIQLPASLAATYSMISLQNCCIIDVGTHHTDIIPIVDYAQLDHLVSSIPMGGQSINDSLKKLLPQWDDDQIESLKKSPIFEVLSDDAKKLSSFDFGNENEDEDEGTLNVAEIITSGRDTREVLEERERGQKVKNVKNSDLEFNTFWDEKGNEIKVGKQRFQGCNNLIKNISNRVGLTLDNIDDINKAKAVWENIIIVGGTTSISGFKEALLGQLLKDHLIIEPEEEKSKREEEAKSVLPAATKKKSKFMTNSTAFVPTIEYVQCPTVIKLAKYPDYFPEWKKSGYSEIIFLGAQIVSKQIFTHPKDTFYITREKYNMKGPAALWDVQF
Take B3: in the experiment with Snf2, the binding result was “binds”.
Still for that read-out and setting: the value for B4 was “binds”.

B5: Arp7 (natural protein)
chain: MTLNRKCVVIHNGSHRTVAGFSNVELPQCIIPSSYIKRTDEGGEAEFIFGTYNMIDAAAEKRNGDEVYTLVDSQGLPYNWDALEMQWRYLYDTQLKVSPEELPLVITMPATNGKPDMAILERYYELAFDKLNVPVFQIVIEPLAIALSMGKSSAFVIDIGASGCNVTPIIDGIVVKNAVVRSKFGGDFLDFQVHERLAPLIKEENDMENMADEQKRSTDVWYEASTWIQQFKSTMLQVSEKDLFELERYYKEQADIYAKQQEQLKQMDQQLQYTALTGSPNNPLVQKKNFLFKPLNKTLTLDLKECYQFAEYLFKPQLISDKFSPEDGLGPLMAKSVKKAGASINSMKANTSTNPNGLGTSHINTNVGDNNSTASSSNISPEQVYSLLLTNVIITGSTSLIEGMEQRIIKELSIRFPQYKLTTFANQVMMDRKIQGWLGALTMANLPSWSLGKWYSKEDYETLKRDRKQSQATNATN
Consider B5, for which the binding result with Snf2 is on record as “binds”.
